Reference: the DeepSol protein solubility set

Assay: soluble on expression in E. coli; label from the status in PepcDB or PDB records

Q: Which “soluble on expression in E. coli” value does the source give for “MDRRRFLVGLLGLGLARGQGLRVEEVVGGLEVPWALAFLPDGGMLIAERPGRIRLFREGRLSTYAELSVYHRGESGLLGLALHPRFPQEPYVYAYRTVAEGGLRNQVVRLRHLGERGVLDRVVLDGIPARPHGLHSGGRIAFGPDGMLYVTTGEVYERELAQDLASLGGKILRLTPEGEPAPGNPFLGRRGARPEVYSLGHRNPQGLAWHPKTGELFSSEHGPSGEQGYGHDEVNLIVPGGNYGWPRVVGRGNDPRYRDPLYFWPQGFPPGNLAFFRGDLYVAGLRGQALLRLVLEGERGRWRVLRVETALSGFGRLREVQVGPDGALYVTTSNRDGRGQVRPGDDRVLRLL” here?
A: soluble

Q: Which “soluble on expression in E. coli” value does the source give for “MDSFLMKGYIKEANIDYSCSRGSMEDLPKWEFREIPKVPRAVMPSLSLEERKNNFNEVELGLSEEVARKEARRCLKCGCSARFTCDLRKEASNHGIVYEEPIHDRPYIPKVDDHPFIVRDHNKCISCGRCIAACAEIEGPGVLTFYMKNGRQLVGTKSGLPLRDTDCVSCGQCVTACPCAALDYRRERGKVVRAINDPKKTVVGFVAPAVRSLISNTFGVSYEEASPFMAGLLKKLGFDKVFDFTFAADLTIVEETTEFLSRIQNKGVMPQFTSCCPGWINFVEKRYPEIIPHLSTCKSPQMMMGATVKNHYAKLMGINKEDLFVVSIVPCLAKKYEAARPEFIHDGIRDVDAVLTTTEMLEMMELADIKPSEVVPQEFDEPYKQVSGAGILFGASGGVAEAALRMAVEKLTGKVLTDHLEFEEIRGFEGVKESTIDVNGTKVRVAVVSGLKNAEPIIEKILNGVDVGYDLIEVMACPGGCICGAGHPVPEKIDSLEKRQQVLVNIDKVSKYRKSQENPDILRLYNEFYGEPNSPLAHELLHTHYTPKHGDSTCSPERKKGTAAFDVQEFTICMCESCMEKGAENLYNDLSSKIRLFKMDPFVQIKRIRLKETHPGKGVYIALNGKQIEEPMLSGNIPDESESE” here?
A: soluble

Q: For “MDSHQQPYASQAQADTTLFPEQTRESLQALAVKLQPLIEGHRLDNLVDLLSLLSDIVDLLDPAMVDRLAQLFEQVTSVGWSVGNAVRVAKAELLREQPPSLKDLLRLLRDADSRRGLALVLGSLRSLGRQLAAEQEVAHGA”, which “soluble on expression in E. coli” value is on record?
A: not soluble

Q: For “MDSPAWMFTKALSHRQKVTRLYKRCLREVDNWYGGNNLEVRFQKCIIRARFDANADEVDTRKSQILLADGCRQLWEKRHFKPFRFALDPGGSSYDRERESPDEIVDSDQWTLAEREQFPYYFNTREQRKKELLTHWAKIEKAWDEEIASIQTQLPAAAPTVSK”, which “soluble on expression in E. coli” value is on record?
A: not soluble

Q: With “MDSQKDFNLGDSSKGEKEGMQPSTGNNQFEPFEFLKKMIQPGRVMKRSKNNLSSNEVWSVCRAVIDEFKKEQNLMEVSAPVTVIGDVHGNFHDLYRALLARTEQDITDEQKSNFSTRQFVRDKYVFLGNYIDKGPRSIECICLLFAFKICFPQKYILLRGPHECPSVNSSEFLGVMETFSPNHFKKIHKKFNEAFSWMPLAAVVGQKILCVHGGISPRLTSWEDIRKIKRPLKDATEDPLATDLLFADTLDFDLIHIPTRKPKYEFNVIRNMSVMYNEAAVTQFCEKFNLKLIIRSHMKVPFGYRFFSEKRLITIFNSTGFQNESNYGAVLKIDGNAKITIISLLPQQSKAEVQEKAHHSDMTSECNTMSSKGP” as the sequence, how does the “soluble on expression in E. coli” value read?
A: not soluble

Q: With “MDSQVEGKISPSQKESSSTSGLVSPSEDGPAHQKIHRDQLSVDQIKKIREERAQKRQVRRNSLISQGKDPDFPTPDLQFIERPFLPINHDNSKGLTPATIQVTQDSLDVKIMTYNTLAQTLIRRDFFPESGPALKWHKRSKVLVHELKKYRPDVVSLQEVDYNELNFWQENFHKLGFDVIFKRHEGKTHGLLVAWNNKKFQLDNDWMLDYDNILAGNVISARTRTKNIALIISLYFKGITDSSSRGIIVANTHLFWHPFGVFERLRQSYLVLQKIQEIKACSKYNGWHSLLMGDFNTEPEEPPYLAITKRPLILKGPIRAMVECSLAYRYSKKRNGEESDQDDEECDEKSRGEGHSDQPQNPKPESFTATKEEKALVNQLVALHNSLHVKGVSLYGIGYGKVHPENANGSHGEPGLSNWANTWCGLLDYIFYIEGDHNQDTRQKEPLNAFEGNNNVKIIGYLRMPCAQEMPKHSQPFEGEYASDHISLMCQIRLFFGGEKVHSLK” as the sequence, how does the “soluble on expression in E. coli” value read?
A: not soluble

Q: With “MDSSSISSLLEDLKHSDALVREQATKKLWRIWFQQKGMYGLEKIDQSQKLLDAGEITEAEVMLTQLIQEQPDFAEAWNRRAFLYYSMGEYQKSLADCQMVIQINPVHFGALHGIGLCYAALGKYAKAIKAFKRALEIQPYSLVNQKLILECTFRLSLEHHHHHH” as the sequence, how does the “soluble on expression in E. coli” value read?
A: not soluble
